# Source: patent publication US20230313187A1, “MODIFICATIONS OF MAMMALIAN CELLS USING ARTIFICIAL MICRO-RNA TO ALTER THEIR PROPERTIES AND THE COMPOSITIONS OF THEIR PRODUCTS” (DNA TWOPOINTO INC., priority 2020, published 2023)
# Legend:
# Format in all cases: cell-based
# [1] = test system: Cricetulus griseus alpha-(1,6)-fucosyl transferase (FUT8) mRNA; assay: CHO pool with amiRNA as host for transient production of afucosylated antibodies; conditions: 7-day transient culture; amiRNA linked to EF1 promoter; FIG. 5B
# Description: The multi-hairpin amiRNA with nucleotide sequence SEQ ID NO: 194 comprised three hairpins with guides complementary to the mRNA for Cricetulus griseus alpha-(1,6)-fucosyl transferase (FUT8), as described in Section 6.1.1.1. The multi-hairpin amiRNA sequence was placed to the 3′ of an open reading frame encoding a red fluorescent protein (with nucleotide sequence SEQ ID NO: 279) and followed by a rabbit globin polyadenylation sequence. The multi-hairpin amiRNA gene was cloned into a Bombyx transposon vector in which it was operably linked to an EF1 promoter (with nucleotide sequence SEQ ID NO: 314). […] It further comprised an open reading frame encoding puromycin selectable marker with polypeptide sequence SEQ ID NO: 302. […]
# (§1) Transposons were co-transfected with mRNA encoding transposase with polypeptide sequence SEQ ID NO: 502 into a CHO cell line expressing no heterologous antibody sequences. […] Protein was purified from the culture supernatant using protein A affinity chromatography, reduced with dithiothreitol, and analyzed on an Agilent QTOF mass spectrometer. […]
# [2] = test system: Cricetulus griseus alpha-(1,6)-fucosyl transferase (FUT8) mRNA; assay: Antibody titer and fucosylation with different numbers of amiRNA hairpins in the 3' UTR of the glutamine synthetase selectable marker
# Description: One- two- or three-hairpin amiRNAs were incorporated into the 3′ UTR of a glutamine synthetase selectable marker on a transposon. The multi-hairpin amiRNA with nucleotide sequence SEQ ID NO: 194 comprised three hairpins as described in Section 6.1.1.1.
# These amiRNA sequences were placed to the 3′ of an open reading frame encoding a glutamine synthetase protein (with polypeptide sequence SEQ ID NO: 307) and followed by a human globin polyadenylation sequence. The amiRNA genes were cloned into a transposon vector in which they were operably linked to a Pol II promoter. The transposon further comprised genes encoding an antibody with mature light chain polypeptide sequence SEQ ID NO: 286 and mature heavy chain polypeptide sequence SEQ ID NO: 288. The transposon further comprised a left end comprising a 5′-TTAA-3′ target sequence immediately followed by an ITR with nucleotide sequence SEQ ID NO: 423 (which is an embodiment of SEQ ID NO: 421) and additional nucleotide sequence SEQ ID NO: 417 and a right end comprising nucleotide sequence SEQ ID NO: 419 immediately followed by an ITR with nucleotide sequence SEQ ID NO: 424 (which is an embodiment of SEQ ID NO: 422) immediately followed by a 5′-TTAA-3′ target sequence. The transposon was configured so that the multi-hairpin amiRNA, the glutamine synthetase gene and the genes for both antibody chains, as well as all necessary operably linked control elements were transposable by a corresponding transposase.
# Transposons were co-transfected with mRNA encoding transposase with polypeptide sequence SEQ ID NO: 472 into a CHO cell line with no functional glutamine synthetase gene. The pool of transfected cells were grown in the absence of glutamine added to the media until their viability reached 95%. They were then grown in a 14 day fed-batch using Sigma Advanced Fed Batch media. Protein was purified from the culture supernatant using protein A affinity chromatography, reduced with dithiothreitol, and analyzed on an Agilent QTOF mass spectrometer. We integrated the area under the peaks at 50,456 Da (corresponding to the heavy chain modified by G0: the conserved heptasaccharide core composed of 2 N-acetylglucosamine, 3 mannose and 2 other N-acetylglucosamine residues that are β-1,2 linked to α-6 mannose and α-3 mannose, forming two arms) and 50,602 (corresponding to the heavy chain modified by G0F: the conserved heptasaccharide core plus a fucose residue) to calculate the relative proportion of fucosylated and afucosylated antibody.
# Table 5. Inhibition of antibody fucosylation with different numbers of amiRNA hairpins. Transposons were constructed as described in Section 6.1.2.1. The SEQ ID NO of the amiRNA gene including the glutamine synthetase ORF and the globin polyA sequence is given in column A. The Pol II promoter shown in column B was operably linked to the amiRNA whose SEQ ID NO is shown in column C. The amiRNA comprised the number of hairpins shown in column D. Following a 14-day fed batch antibody production run, the culture supernatant contained the concentration of antibody shown in column E. The percentage of antibody that was afucosylated is shown in column F, the percentage that was fucosylated is shown in column G. BDL=below detection limit.
# [3] = test system: Cricetulus griseus alpha-(1,6)-fucosyl transferase (FUT8) mRNA; assay: Antibody titer and fucosylation with multi-hairpin amiRNA in the GS 3' UTR driven by different promoters and inhibitory 5' UTRs; conditions: 14 day fed-batch
# Description: The three-hairpin amiRNA with nucleotide sequence SEQ ID NO: 194 was incorporated into the 3′ UTR of a glutamine synthetase selectable marker on a transposon. The amiRNA sequence was placed to the 3′ of an open reading frame encoding a glutamine synthetase protein with polypeptide sequence SEQ ID NO: 307 and was followed by a human globin polyadenylation sequence. The amiRNA gene was cloned into different transposon vectors in which it was operably linked to different Pol II promoters. Each transposon further comprised genes encoding an antibody with mature light chain polypeptide sequence SEQ ID NO: 286 and mature heavy chain polypeptide sequence SEQ ID NO: 288. […]
# as §1, with “472” for “502”, “with” for “expressing”, “functional glutamine synthetase gene.” for “heterologous antibody sequences.”
# [4] = test system: Cricetulus griseus Neu2 mRNA; assay: Sialylation of an Fc fusion protein from CHO cells with Neu2-targeting amiRNA (capillary isoelectric focusing); conditions: 14 day fed-batch; Fc fusion to a growth factor receptor; FIG. 6B vs reference standard
# Description: The multi-hairpin amiRNA was cloned into a piggyBac-like transposon to the 3′ of a spacer polynucleotide with nucleotide sequence SEQ ID NO: 280, and operably linked to a PGK promoter with nucleotide sequence SEQ ID NO: 385. The nucleotide sequence of the multi-hairpin amiRNA gene is given as SEQ ID NO: 593. The piggyBac-like transposon further comprised a selectable marker conferring resistance to puromycin with amino acid sequence SEQ ID NO: 302. The piggyBac-like transposon further comprised a target sequence 5′-TTAA-3′ immediately followed by an ITR with nucleotide sequence SEQ ID NO: 427, immediately followed by further transposon end sequences with nucleotide sequence SEQ ID NO: 425. The piggyBac-like transposon further comprised nucleotide sequence SEQ ID NO: 426, immediately followed by a second ITR with nucleotide sequence SEQ ID NO: 428, immediately followed by the target sequence 5′-TTAA-3′. […]
# After the transfected cell pools had recovered to >95% viability, we tested their ability to produce sialylated protein. […] Protein was purified from the culture supernatant using protein A affinity chromatography, reduced with dithiothreitol, and analyzed by capillary isoelectric focusing (cIEF). […]
Molecule,antibody fucosylation (G0F peak) [1],fucosylation of the antibody ([2]; CMV and EEF2 promoter operably linked to the amiRNA),antibody titer in the culture supernatant ([2]; CMV promoter) [mg/L],antibody titer in the culture supernatant ([2]; EEF2 promoter) [mg/L],"antibody titer ([2]; weaker (PGK) promoter operably linked to glutamine synthetase, amiRNA in 3' UTR) [mg/L]","antibody fucosylation ([2]; weaker (PGK) promoter, amiRNA in GS 3' UTR, natural level around 80-85%)",antibody fucosylation [3],antibody titer [3],sialylation of the produced protein (cIEF glycoform peaks) [4]
"SEQ ID NO: 194: three-hairpin amiRNA, guides SEQ ID NOs 23, 24, 25 to Cricetulus griseus FUT8 mRNA, unstructured sequences between hairpins (nucleic acid) ATCTGATCTTCTGAAGAAAATATATTTCTTTTTATTCATAGCTCTTAACTAGTGGTGATAGCAATGTCAGCAGTGCCTGGAAAAACATCCATTCTCATTCGTGAAGCCACAGATGGAATGAGAATAGATGTTTTTCAAAGTAAGGTTGACCATACTCTACTCTAGTTATATTCTTTAGGCACGAATGTGTGTTTAAAAAAAATAAAAACTAGTGGTGATAGCAATGTCAGCAGTGCCTTTAAATTACATAATGTGGCAGTGTGAAGCCACAGATGACTGCCACATCATGTAATTTACAAGTAAGGTTGACCATACTCTACTCTAGAGTTGTGTTTTAATGTATATTAATGTTACTAATGTGTTTACTAGTGGTGATAGCAATGTCAGCAGTGCCTTATTTTACTGTGCATGGGCTTGGTGAAGCCACAGATGCAAGCCCATGAACAGTAAAATCAAGTAAGGTTGACCATACTCTACTCTAGTCAGTTTTATTGATAGTCTTTTCAGTATTATTGATAATCTT",produced only afucosylated antibodies,completely eliminated fucosylation of the antibody,163,443,835,completely prevented,completely suppressed,exceeded 3 g/L,–
"SEQ ID NO: 568: three-hairpin amiRNA, guides SEQ ID NOs 92, 91, 90 complementary to Cricetulus griseus Neu2 mRNA (nucleic acid) ATCTGATCTTCTGAAGAAAATATATTTCTTTTTATTCATAGCTCTTAACTAGTGGTGATAGCAATGTCAGCAGTGCCTATGAAGTCTATGAAGAGTCAGGGTGAAGCCACAGATGCCTGACTCTTAATAGACTTCACAAGTAAGGTTGACCATACTCTACTCTAGAGTTGTGTTTTAATGTATATTAATGTTACTAATGTGTTTACTAGTGGTGATAGCAATGTCAGCAGTGCCTTACAAGTTTACTCACTACCTGGGTGAAGCCACAGATGCCAGGTAGTGCGTAAACTTGTCAAGTAAGGTTGACCATACTCTACTCTAGGTTATTTTTAGTATGATTCTGTAAAAATGAATTAATACTAACTAGTGGTGATAGCAATGTCAGCAGTGCCTTAATTTATTAAGACTCATCCAAGTGAAGCCACAGATGTTGGATGAGTATTAATAAATTCAAGTAAGGTTGACCATACTCTACTCTAGTCAGTTTTATTGATAGTCTTTTCAGTATTATTGATAATCTT",–,–,–,–,–,–,–,–,substantially reduces the removal of sialic acid from proteins produced by CHO cells
